± gives the standard deviation of the averaged measurements.
test system: ATP; assay: switch fluorescence ratio, 500 uM ATP over buffer (Cy3 cluster intensity, sum of 5 cycles each) (fold (ratio)); higher = stronger signal-on switching upon ATP binding; sequences stand for … in TCGTCGGCAGCGTCAGATGTGTATAAGAGACAGTTTTTTTTTTTTTTTTTTTTTTTTT…TC; details: aptamer strand: ATP DNA aptamer (quencher-CACCTGGGGGAGTATTGCGGAGGAAGG + anchor), 100 nM annealed; ATP concentration: 500 uM
Outline: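 Values give the fluorescence ratio for each switch-domain sequence, averaged from per-cluster ratios of summed target-cycle to summed buffer-cycle Cy3 intensity. The Cy3-labelled switching-strand clusters sat on a modified Illumina MiSeq flow-cell, were annealed to 100 nM quencher-labelled ATP aptamer, and were imaged in selection buffer, then after 15 min with 500 uM ATP at 22 °C. Five cycles ran with NaOH stripping and re-annealing between them, and clusters outside 100-1000 RFU were excluded.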
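Also: ATP exposure 15 min at 22 °C before imaging.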

Sequence | switch fluorescence ratio
ACCCAAGATT | 1.01 ± 0.017
ACCCAGAAGG | 1.08 ± 0.043
ACCCATCTGT | 0.979 ± 0.013
ACCCATGCGA | 1.13 ± 0.036
ACCCATTGTA | 1.064 ± 0.0071
ACCCCATGCG | 1.22 ± 0.037
ACCCCGGTAA | 1.87 ± 1.2
ACCCGGGGCA | 1.05 ± 0.054
ACCCGTACAT | 1.11 ± 0.022
ACCCGTTTTG | 1.01 ± 0.025
ACCCTGGACA | 1.01 ± 0.019
ACCGAGCAAG | 4.12 ± 0.19
ACCGAGGCAT | 3.81 ± 1.5
ACCGAGGGGG | 1.02 ± 0.041
ACCGCGGGCG | 1.069 ± 0.0053
ACCGCTTACG | 1.56 ± 0.12
ACCGGCGAGG | 1.01 ± 0.036
ACCGGGGCTC | 1.05 ± 0.052
ACCGGGGGAG | 0.984 ± 0.02
ACCGGGGTGT | 1.17 ± 0.14
ACCGGGTTGG | 0.999 ± 0.01
ACCGGTCTAT | 1.031 ± 0.00046
ACCGGTGCTT | 1.04 ± 0.032
ACCGGTTACA | 1.03 ± 0.042
ACCGGTTTTT | 1.04 ± 0.045

Sequence | switch fluorescence ratio
ACCGTAGCTT | 2.61 ± 0.14
ACCGTCAGGT | 1 ± 0.085
ACCTACAAGG | 0.99429 ± 0.00094
ACCTAGCGAT | 1.57 ± 0.03
ACCTCATTTG | 1.067 ± 0.0049
ACCTCGTTTT | 0.9879 ± 0.0062
ACCTGATATA | 1.03 ± 0.021
ACCTGATCGT | 1.087 ± 0.0051
ACCTGATTAT | 1.02 ± 0.02
ACCTGCAATG | 2.43 ± 0.2
ACCTGCATGG | 1.05 ± 0.11
ACCTGCTAAC | 1.59 ± 0.024
ACCTGGACCT | 1.33 ± 0.032
ACCTGGATAC | 1.86 ± 0.019
ACCTGGGCGC | 1.2 ± 0.12
ACCTGTATTT | 1 ± 0.02
ACCTGTGAGT | 0.9909 ± 0.0019
ACCTTCTTTT | 1.11 ± 0.11
ACCTTGAGAG | 1 ± 0.011
ACCTTGGTGT | 1.01 ± 0.053
ACCTTTTTTG | 0.992 ± 0.024
ACGAAAACGC | 1.36 ± 0.23
ACGAAAGTCT | 1.03 ± 0.041
ACGAACGGTA | 1.37 ± 0.032
ACGAAGAGTT | 1.05 ± 0.019

Sequence | switch fluorescence ratio
ACGAATGCGT | 0.975 ± 0.047
ACGACTGGGG | 1.02 ± 0.03
ACGACTTGGT | 1.09 ± 0.11
ACGACTTTGT | 1.02 ± 0.032
ACGAGAGAAA | 0.974 ± 0.017
ACGAGCTGCT | 1.032 ± 0.0038
ACGAGTAGCT | 1.01 ± 0.014
ACGAGTCTGG | 1.08 ± 0.039
ACGAGTGTTG | 1.03 ± 0.037
ACGAGTTCAT | 0.999 ± 0.017
ACGAGTTCCT | 0.989 ± 0.056
ACGATAGGGC | 1.06 ± 0.046
ACGATGTATC | 1.06 ± 0.049
ACGATTGGTG | 1.07 ± 0.056
ACGCAACGCC | 1.6634 ± 0.0003
ACGCCTACGA | 1.15 ± 0.09
ACGCGCGCGC | 0.987 ± 0.036
ACGCGGCAGG | 1.02 ± 0.022
ACGCGGCGGG | 0.977 ± 0.036
ACGCTAATGT | 1.35 ± 0.23
ACGCTAGGGC | 1.16 ± 0.039
ACGCTGGGGA | 0.993 ± 0.016
ACGGAAACGC | 1.1 ± 0.02
ACGGAAGTTA | 1.02 ± 0.025
ACGGACCATT | 1.27 ± 0.014

Sequence | switch fluorescence ratio
ACGGAGACCG | 1.01 ± 0.038
ACGGAGCCTT | 1.32 ± 0.036
ACGGAGGGGT | 1.14 ± 0.13
ACGGAGGGTG | 1.029 ± 0.0088
ACGGATTTGG | 0.9926 ± 0.0095
ACGGCAACAT | 1.31 ± 0.1
ACGGCAAGGA | 1.12 ± 0.028
ACGGCAGTGA | 1.0394 ± 0.00012
ACGGCCGGTC | 0.9773 ± 0.0026
ACGGCGGTGC | 1.034 ± 0.0078
ACGGCTGAGC | 1.04 ± 0.03
ACGGCTGTTA | 1.012 ± 0.0046
ACGGGAAAAG | 1.01 ± 0.035
ACGGGAATTG | 1.04 ± 0.019
ACGGGACGGG | 1.02 ± 0.035
ACGGGCAATG | 1.32 ± 0.16
ACGGGCATTC | 1.76 ± 0.42
ACGGGCGGGG | 1.02 ± 0.021
ACGGGCTAGG | 1.01 ± 0.027
ACGGGGAATG | 1.01 ± 0.056
ACGGGGAGGT | 0.981 ± 0.04
ACGGGGAGTT | 1.05 ± 0.031
ACGGGGCATT | 1 ± 0.043
ACGGGGCTTT | 1.05 ± 0.024
ACGGGGGGAT | 1.04 ± 0.089

Source: the supplement of paper PMC10126150
